Assay results from US20100172907A1 (Hoffmann-La Roche, published 2010).
Read-outs that look alike come from different tables or passages of the source. Groups on a side chain read outwards from the residue. No end group written: not given here. NSMP = not defined here

How the values were obtained:
[1] = molecular target: T1, BSA-conjugated Aβ heptapeptide AEFRHDC (C-terminal Cys coupled to NSMP-activated BSA); experiment: ELISA
T1 construct: also called Peptide 2-7
T1 peptide: AEFRHDC
Description: (§1) 50 μl of NSMP activated BSA (6.7 mg/ml) was diluted with 50 μl of PBS, 0.1% sodium azide and 10 μl of peptide solution (1 mM in DMSO) was added. As negative control activated BSA was mock-treated without peptide addition. After 4 hrs at room temperature the reaction was stopped by addition of 10 μl of 10 mM Cystein. An aliquot of the conjugate reaction mixture was diluted 1:100 with 0.1M sodium bicarbonate buffer and immediately filled into the wells (100 μl) of ELISA plates (Nunc Immuno-Plate). After standing 16 hrs at 4° C. 100 μl blocking buffer (as above) was added to each well and incubated for another 30 minutes. The plates were washed with 2×300 μl/well TBST (as above) and filled with 100 μl antibody at 10 μg/ml or 2 μg/ml in blocking buffer. The plates were kept 16 hours at 4° C. and washed with 2×300 μl TBST. 100 μl/well HRP-conjugated anti-human Ig H+L (Pierce, dilution 1:1000 with blocking buffer) was added and incubated for 1 hour at ambient temperature. The plates were washed with 3×300 μl/well TBST. Colour development was started by addition of 100 μl tetra-methyl benzidine/hydrogen peroxide reagent.

[2] = molecular target: T2, BSA-conjugated Aβ heptapeptide VFFAEDC (C-terminal Cys coupled to NSMP-activated BSA); experiment: ELISA
T2 construct: also called Peptide 18-23
T2 peptide: VFFAEDC
Description: as §1

[3] = molecular target: T3, BSA-conjugated Aβ heptapeptide FFAEDVC (C-terminal Cys coupled to NSMP-activated BSA); experiment: ELISA
T3 construct: also called Peptide 19-24
T3 peptide: FFAEDVC
Description: as §1

[4] = molecular target: T4, BSA-conjugated Aβ heptapeptide LVFFAEC (reading uncertain; also: BSA conjugate); experiment: ELISA
T4 construct: also called Peptide 17-22
T4 peptide: LVFFAEC([NSMP-BSA])
Description: as §1

[5] = molecular target: T5, Aβ (1-42) peptide (human); experiment: SPR Scatchard, higher affinity (bivalent)
T5 construct: also called Aβ1-42 fibers; Aβ4
Description: (§2) Binders with fast kinetics were analyzed by fitting the concentration-dependent sensor responses at equilibrium (adsorption-isotherms). KD values were calculated from the Biacore sensograms based on the total Fab concentration as determined by a protein assay. […] Briefly, time-dependent protein binding to Aβ1-40 fibers immobilized on the Biacore chip was measured during the association phase under mass-limited conditions at different flow rates of the analyte solution.
(§3) KD values of IgG binding to Aβ1-40 and Aβ1-42 fibers were determined in the Biacore. Briefly, a kinetic model for the stepwise formation of a bivalent complex was used, and KD values were calculated by Scatchard type analysis of equilibrium binding. Due to the very slow association process at low antibody concentration (several hours to reach equilibrium) equilibrium binding data were obtained by extrapolation of the association curves to long time intervals. The on- and off rates for the formation of the monovalent and bivalent complex were determined via the curve fit procedure and used for the extrapolation. Based on these Req values a Scatchard analysis was performed and KD values for the formation of the monovalent and the bivalent complex were determined.

[6] = molecular target: T6, human Aβ (1-40) peptide (human); experiment: SPR Scatchard, higher affinity (bivalent)
T6 construct: also called Aβ1-40 fibers
Description: as §2, §3

[7] = molecular target: T5, Aβ (1-42) peptide; experiment: SPR, immobilized fibers
Description: (§4) Biacore2000 and Biacore3000 instruments were used for these measurements. Aβ1-40 and Aβ1-42 fibers were generated in vitro by incubation of synthetic peptides at a concentration of 200 μg/ml in 10 mM Na-acetate buffer (pH 4.0) for three days at 37° C. […] For binders with slow kinetics KD values were calculated by curve fitting of the time-dependent sensor responses, i.e. from the ratio of koff/kₒₙ. Binders with fast kinetics were analyzed by fitting the concentration-dependent sensor responses at equilibrium (adsorption-isotherms). KD values were calculated from the Biacore sensograms based on the total Fab concentration as determined by a protein assay. […] Briefly, time-dependent protein binding to Aβ1-40 fibers immobilized on the Biacore chip was measured during the association phase under mass-limited conditions at different flow rates of the analyte solution.

[8] = molecular target: T6, human Aβ (1-40) peptide; experiment: SPR, immobilized fibers
Description: as §4

[9] = molecular target: T5, Aβ (1-42) peptide; experiment: SPR, immobilized fibers; remark: listed apart in the source
Description: as §4

[10] = molecular target: T6, human Aβ (1-40) peptide; experiment: SPR, immobilized fibers; remark: listed apart in the source
Description: as §4

[11] = molecular target: T6, human Aβ (1-40) peptide; experiment: SPR, immobilized fibers; remark: listed apart in the source
[12] = molecular target: T5, Aβ (1-42) peptide; experiment: SPR, immobilized fibers; remark: listed apart in the source
Description: as §4

[13] = molecular target: T6, human Aβ (1-40) peptide; experiment: SPR, immobilized fibers; remark: listed apart in the source
Description: as §4

[14] = molecular target: T1, BSA-conjugated Aβ heptapeptide AEFRHDC; experiment: ELISA
Description: as §1

[15] = molecular target: T2, BSA-conjugated Aβ heptapeptide VFFAEDC; experiment: ELISA
Description: as §1

[16] = molecular target: T3, BSA-conjugated Aβ heptapeptide FFAEDVC; experiment: ELISA
Description: as §1

[17] = molecular target: T4, BSA-conjugated Aβ heptapeptide LVFFAEC; experiment: ELISA
Description: as §1

[18] = molecular target: T5, Aβ (1-42) peptide; experiment: SPR, immobilized fibers, equilibrium responses
Description: as §4

[19] = molecular target: T6, human Aβ (1-40) peptide; experiment: SPR, immobilized fibers, equilibrium responses
Description: as §4

B1: MS-R #7.9.H7 IgG1 (antibody, V domains shown)
VH: QVELVESGGGLVQPGGSLRLSCAASGFTFSSYAMSWVRQAPGKGLEWVSAINASGTRTYYADSVKGRFTISRDNSKNTLYLQMNSLRAEDTAVYYCARGKGNTHKPYGYVRYFDVWGQGTLVTVSS
VL: DIVLTQSPATLSLSPGERATLSCRASQSVSSSYLAWYQQKPGQAPRLLIYGASSRATGVPARFSGSGSGTDFTLTISSLEPEDFATYYCLQIYNMPITFGQGTKVEIKR
notes: full-length human IgG1; also called MAB 31; MS-Roche IgG #7.9.H7
OD ratio 2-7/BSA [1]: 30 | OD ratio 18-23/BSA [2]: 16 | Peptide-ratio 18-23/2-7 [2]: 0.53 | OD ratio 19-24/BSA [3]: 10 | Peptide-ratio 19-24/2-7 [3]: 0.33 | OD ratio 17-22/BSA [4]: 5 | Peptide-ratio 17-22/2-7 [4]: 0.17 | Kd [5]: 0.24 to 0.7 nM | Kd [6]: 0.25 to 0.69 nM

B2: MS-R #7.12 IgG1 (antibody, V domains shown)
VH: QVELVESGGGLVQPGGSLRLSCAASGFTFSSYGMSWVRQAPGKGLEWVSNISGSGSSTYYADSVKGRFTISRDNSKNTLYLQMNSLRAEDTAVYYCARGKGNTHKPYGYVRYFDVWGQGTLVTVSS
VL: DIVLTQSPATLSLSPGERATLSCRASQYVSSPYLAWYQQKPGQAPRLLISGSSNRATGVPARFSGSGSGTDFTLTISSLEPEDFAVYYCLQLYNIPNTFGQGTKVEIKR
notes: full-length human IgG1
Kd [7]: 13.7 nM | Kd [8]: 3.1 nM | Kd [9]: 13.7 nM | Kd [10]: 3.1 nM | OD ratio 2-7/BSA [1]: 19 | OD ratio 18-23/BSA [2]: 13 | Peptide-ratio 18-23/2-7 [2]: 0.68 | OD ratio 19-24/BSA [3]: 11 | Peptide-ratio 19-24/2-7 [3]: 0.58 | OD ratio 17-22/BSA [4]: 11 | Peptide-ratio 17-22/2-7 [4]: 0.58

B3: MSR 7.9.H2 IgG1 (antibody, V domains shown)
VH: QVELVESGGGLVQPGGSLRLSCAASGFTFSSYAMSWVRQAPGKGLEWVSAINADGNRKYYADSVKGRFTISRDNSKNTLYLQMNSLRAEDTAVYYCARGKGNTHKPYGYVRYFDVWGQGTLVTVSS
VL: DIVLTQSPATLSLSPGERATLSCRASQSVSSSYLAWYQQKPGQAPRLLIYGASSRATGVPARFSGSGSGTDFTLTISSLEPEDFATYYCLQIYNMPITFGQGTKVEIKR
notes: full-length human IgG1
OD ratio 2-7/BSA [1]: 13 | OD ratio 18-23/BSA [2]: 8 | Peptide-ratio 18-23/2-7 [2]: 0.62 | OD ratio 19-24/BSA [3]: 6 | Peptide-ratio 19-24/2-7 [3]: 0.46 | OD ratio 17-22/BSA [4]: 5 | Peptide-ratio 17-22/2-7 [4]: 0.38 | Kd [5]: 0.11 to 0.38 nM | Kd [6]: 0.12 to 0.42 nM

B4: MS-R #7.11 IgG1 (antibody, V domains shown)
VH: QVELVESGGGLVQPGGSLRLSCAASGFTFSSYAMSWVRQAPGKGLEWVSAISGSGGSTYYADSVKGRFTISRDNSKNTLYLQMNSLRAEDTAVYYCARGKGNTHKPYGYVRYFDVWGQGTLVTVSS
VL: DIVLTQSPATLSLSPGERATLSCRASQSVSSSYLAWYQQKPGQAPRLLIYGASSRATGVPARFSGSGSGTDFTLTISSLEPEDFATYYCQQVYSPPHTFGQGTKVEIKR
notes: full-length human IgG1
Kd [7]: 5.7 nM | Kd [8]: 2.3 nM | Kd [9]: 5.7 nM | Kd [10]: 2.3 nM

B5: MS-Roche #7.9 Fab (Fab, V domains shown)
VH: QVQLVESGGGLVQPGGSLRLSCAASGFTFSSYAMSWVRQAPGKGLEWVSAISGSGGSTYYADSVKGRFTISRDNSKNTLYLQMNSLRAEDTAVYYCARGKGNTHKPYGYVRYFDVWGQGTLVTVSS
VL: DIVLTQSPATLSLSPGERATLSCRASQSVSSSYLAWYQQKPGQAPRLLIYGASSRATGVPARFSGSGSGTDFTLTISSLEPEDFATYYCLQIYNMPITFGQGTKVEIKR
notes: VL entry is that of the H-CDR2 derivative 7.9H7
fold improvement of affinity over the MS-Roche-7 parental Fab [11]: > 35 fold | Kd [12]: 93 nM | Kd [13]: 31 nM | OD ratio 2-7/BSA [14]: 28 | OD ratio 18-23/BSA [15]: 13 | Peptide-ratio 18-23/2-7 [15]: 0.46 | OD ratio 19-24/BSA [16]: 8 | Peptide-ratio 19-24/2-7 [16]: 0.29 | OD ratio 17-22/BSA [17]: 9 | Peptide-ratio 17-22/2-7 [17]: 0.32

B6: MS-R IgG1 7.9.H3 (antibody, V domains shown)
VH: QVELVESGGGLVQPGGSLRLSCAASGFTFSSYAMSWVRQAPGKGLEWVSAINYQGNRKYYADSVKGRFTISRDNSKNTLYLQMNSLRAEDTAVYYCARGKGNTHKPYGYVRYFDVWGQGTLVTVSS
VL: DIVLTQSPATLSLSPGERATLSCRASQSVSSSYLAWYQQKPGQAPRLLIYGASSRATGVPARFSGSGSGTDFTLTISSLEPEDFATYYCLQIYNMPITFGQGTKVEIK
notes: full-length human IgG1; also called 7.9H3 IgG
OD ratio 2-7/BSA [1]: 13 | OD ratio 18-23/BSA [2]: 8 | Peptide-ratio 18-23/2-7 [2]: 0.62 | OD ratio 19-24/BSA [3]: 6 | Peptide-ratio 19-24/2-7 [3]: 0.46 | OD ratio 17-22/BSA [4]: 6 | Peptide-ratio 17-22/2-7 [4]: 0.46 | Kd [5]: 0.1 to 0.4 nM | Kd [6]: 0.1 to 0.5 nM

B7: MS-R IgG1 3.6.H5 × 3.6.L2 (antibody, V domains shown)
VH: ELVESGGGLVQPGGSLRLSCAASGFTFSSYAMSWVRQAPGKGLEWVSAISESGKTKYYADSVKGRFTISRDNSKNTLYLQMNSLRAEDTAVYYCARLTHYARYYRYFDVWGQGTLVTVSS
VL: DIVLTQSPATLSLSPGERATLSCRASQFLSRYYLAWYQQKPGQAPRLLIYGASSRATGVPARFSGSGSGTDFTLTISSLEPEDFAVYYCQQTYNYPPTFGQGTKVEIKR
notes: full-length human IgG1; VH entry starts at QLVESGG
OD ratio 2-7/BSA [1]: 11 | OD ratio 18-23/BSA [2]: 9 | Peptide-ratio 18-23/2-7 [2]: 0.82 | OD ratio 19-24/BSA [3]: 8 | Peptide-ratio 19-24/2-7 [3]: 0.73 | OD ratio 17-22/BSA [4]: 7 | Peptide-ratio 17-22/2-7 [4]: 0.64 | Kd [5]: 0.2 to 0.95 nM | Kd [6]: 0.2 to 1.03 nM

B8: MS-R IgG1 8.2.H2 (antibody, V domains shown)
VH: QVELVESGGGLVQPGGSLRLSCAASGFTFSSYAMSWVRQAPGKGLEWVSAISRTGSKTYYADSVKGRFTISRDNSKNTLYLQMNSLRAEDTAVYYCARLLSRGYNGYYHKFDVWGQGTLVTVSS
VL: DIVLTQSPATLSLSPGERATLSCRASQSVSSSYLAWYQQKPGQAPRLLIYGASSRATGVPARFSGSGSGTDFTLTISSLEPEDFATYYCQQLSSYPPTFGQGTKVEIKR
notes: full-length human IgG1
OD ratio 2-7/BSA [1]: 18 | OD ratio 18-23/BSA [2]: 15 | Peptide-ratio 18-23/2-7 [2]: 0.83 | OD ratio 19-24/BSA [3]: 14 | Peptide-ratio 19-24/2-7 [3]: 0.78 | OD ratio 17-22/BSA [4]: 10 | Peptide-ratio 17-22/2-7 [4]: 0.56 | Kd [5]: 0.12 to 0.92 nM | Kd [6]: 0.16 to 1 nM

B9: MS-R IgG 8.2.H2 × 8.2.L1 (antibody, V domains shown)
VH: QVELVESGGGLVQPGGSLRLSCAASGFTFSSYAMSWVRQAPGKGLEWVSAISRTGSKTYYADSVKGRFTISRDNSKNTLYLQMNSLRAEDTAVYYCARLLSRGYNGYYHKFDVWGQGTLVTVSS
VL: DIVLTQSPATLSLSPGERATLSCRASQRVSGRYLAWYQQKPGQAPRLLIYGASSRATGVPARFSGSGSGTDFTLTISSLEPEDFATYYCQQLSSYPPTFGQGTKVEIKR
notes: full-length human IgG
OD ratio 2-7/BSA [1]: 13 | OD ratio 18-23/BSA [2]: 25 | Peptide-ratio 18-23/2-7 [2]: 1.92 | OD ratio 19-24/BSA [3]: 25 | Peptide-ratio 19-24/2-7 [3]: 1.92 | OD ratio 17-22/BSA [4]: 20 | Peptide-ratio 17-22/2-7 [4]: 1.54

B10: MS-Roche #8.2.H1 Fab (Fab, V domains shown)
VH: QVQLVESGGGLVQPGGSLRLSCAASGFTFSSYAMSWVRQAPGKGLEWVSAISITGRRKYYADSVKGRFTISRDNSKNTLYLQMNSLRAEDTAVYYCARLLSRGYNGYYHKFDVWGQGTLVTVSS
VL: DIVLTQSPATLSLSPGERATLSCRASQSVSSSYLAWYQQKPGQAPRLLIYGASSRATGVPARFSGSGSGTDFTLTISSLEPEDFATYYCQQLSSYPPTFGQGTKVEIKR
Kd [18]: 2.1 nM | Kd [19]: 1.6 nM | OD ratio 2-7/BSA [14]: 22 | OD ratio 18-23/BSA [15]: 23 | Peptide-ratio 18-23/2-7 [15]: 1.05 | OD ratio 19-24/BSA [16]: 20 | Peptide-ratio 19-24/2-7 [16]: 0.94 | OD ratio 17-22/BSA [17]: 7 | Peptide-ratio 17-22/2-7 [17]: 0.34

B11: MSR 3.4.H7 IgG1 (antibody, V domains shown)
VH: QVQLVESGGGLVQPGGSLRLSCAASGFTFSSYAMSWVRQAPGKGLEWVSVISETGKNIYYADSVKGRFTISRDNSKNTLYLQMNSLRAEDTAVYYCARLTHYARYYRYFDVWGQGTLVTVSS
VL: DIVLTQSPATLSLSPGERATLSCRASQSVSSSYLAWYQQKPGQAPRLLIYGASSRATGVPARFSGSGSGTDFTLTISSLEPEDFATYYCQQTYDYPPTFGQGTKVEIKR
notes: full-length human IgG1
OD ratio 2-7/BSA [1]: 22 | OD ratio 18-23/BSA [2]: 16 | Peptide-ratio 18-23/2-7 [2]: 0.73 | OD ratio 19-24/BSA [3]: 15 | Peptide-ratio 19-24/2-7 [3]: 0.68 | OD ratio 17-22/BSA [4]: 3 | Peptide-ratio 17-22/2-7 [4]: 0.14 | Kd [5]: 0.1 to 0.3 nM | Kd [6]: 0.1 to 0.3 nM
